Source: US20200140868

Target: T1, Recombinant FANCE (149-536) wild-type, Q9HB96
T1 chain: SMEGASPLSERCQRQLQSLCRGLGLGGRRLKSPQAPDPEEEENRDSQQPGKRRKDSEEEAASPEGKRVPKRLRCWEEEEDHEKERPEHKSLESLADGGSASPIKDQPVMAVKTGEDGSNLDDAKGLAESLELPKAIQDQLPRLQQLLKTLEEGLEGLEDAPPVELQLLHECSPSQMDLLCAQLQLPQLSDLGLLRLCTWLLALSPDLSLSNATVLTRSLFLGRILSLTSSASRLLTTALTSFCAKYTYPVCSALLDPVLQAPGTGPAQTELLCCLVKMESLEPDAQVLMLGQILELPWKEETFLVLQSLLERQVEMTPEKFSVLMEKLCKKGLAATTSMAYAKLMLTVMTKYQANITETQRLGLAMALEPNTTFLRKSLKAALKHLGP

B1: purified recombinant Chk1 (Upstate Technology) (protein)
chain: MAVPFVEDWDLVQTLGEGAYGEVQLAVNRVTEEAVAVKIVDMKRAVDCPENIKKEICINKMLNHENVVKFYGHRREGNIQYLFLEYCSGGELFDRIEPDIGMPEPDAQRFFHQLMAGVVYLHGIGITHRDIKPENLLLDERDNLKISDFGLATVFRYNNRERLLNKMCGTLPYVAPELLKRREFHAEPVDVWSCGIVLTAMLAGELPWDQPSDSCQEYSDWKEKKTYLNPWKKIDSAPLALLHKILVENPSARITIPDIKKDRWYNKPLKKGAKRPRVTSGGVSESPSGFSKHIQSNLDFSPVNSASSEENVKYSSSQPEPRTGLSLWDTSPSYIDKLVQGISFSQPTCPDHMLLNSQLLGTPGSSQNPWQRLVKRMTRFFTKLDADKSYQCLKETCEKLGYQWKKSCMNQVTISTTDRRNNKLIFKVNLLEMDDKILVDFRLSKGDGLEFKRHFLKIKGKLIDIVSSQKIWLPAT
in vitro kinase assay, Western blot with anti-pT346-FANCE and anti-pS374-FANCE: the recombinant FANCE (rFANCEwt) protein phosphorylated by Chk1 in vitro
